How the values were obtained:
[1] = target: T1, 6× His-tagged PRMT5 (human, UniProt O14744 1-637); assay: pull-down; binding reaction (500 μl) with 100 μl purified His-p16^INK4a (or His-PRMT5) and increasing amounts (50, 100, 200, 400 μl) of purified His-PRMT5 (or His-p16^INK4a) incubated with GST-fused CDK4 1-70 aa; Western blot; conditions: both partners purified
T1 construct: protein arginine methyltransferase 5 (PRMT5), human; also called His-PRMT5

[2] = target: T2, 6× His-tagged p16^INK4a (human, UniProt P42771 1-156); assay: as above; conditions: both partners purified
T2 construct: p16^INK4a, the major isoform of CDKN2A, human; also called His-p16^INK4a; CDKN2A
T2 sequence (looked up): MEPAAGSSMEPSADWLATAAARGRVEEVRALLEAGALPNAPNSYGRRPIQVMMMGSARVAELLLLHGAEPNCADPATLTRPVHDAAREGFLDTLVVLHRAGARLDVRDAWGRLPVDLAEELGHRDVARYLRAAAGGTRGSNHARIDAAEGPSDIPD

T1 sequence (O14744 whole entry, the tested form may be a part): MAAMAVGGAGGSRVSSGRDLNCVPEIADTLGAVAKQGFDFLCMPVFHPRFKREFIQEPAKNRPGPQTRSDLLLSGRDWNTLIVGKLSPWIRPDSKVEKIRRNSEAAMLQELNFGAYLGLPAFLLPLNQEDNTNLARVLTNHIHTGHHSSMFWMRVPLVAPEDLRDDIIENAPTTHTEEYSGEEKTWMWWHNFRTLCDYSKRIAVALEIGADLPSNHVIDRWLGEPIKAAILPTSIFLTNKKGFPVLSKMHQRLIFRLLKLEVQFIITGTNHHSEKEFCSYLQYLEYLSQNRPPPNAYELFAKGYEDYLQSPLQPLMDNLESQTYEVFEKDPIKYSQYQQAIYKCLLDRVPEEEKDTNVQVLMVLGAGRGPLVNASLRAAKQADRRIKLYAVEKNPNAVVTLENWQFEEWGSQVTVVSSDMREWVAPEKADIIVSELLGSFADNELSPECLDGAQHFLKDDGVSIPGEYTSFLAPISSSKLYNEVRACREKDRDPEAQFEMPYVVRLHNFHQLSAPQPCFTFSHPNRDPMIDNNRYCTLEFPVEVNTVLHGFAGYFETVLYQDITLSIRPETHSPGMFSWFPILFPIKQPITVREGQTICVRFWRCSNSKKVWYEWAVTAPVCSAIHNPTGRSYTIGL

B1: GST-fused CDK4 1-70 aa (domain or fragment, human, UniProt P11802-1 1-70, looked up)
chain: MATSRYEPVAEIGVGAYGTVYKARDPHSGHFVALKSVRVPNGGGGGGGLPISTVREVALLRRLEAFEHPN
notes: cyclin dependent kinase 4 (CDK4), human, amino acids 1-70 of NP_000066; also called GST-CDK4 fragment 1-70; source: E. coli BL21, purified (glutathione-Sepharose 4B beads)
Question: Does B1 bind [1]?
Answer: Result: binds

Question: Does B1 bind [2]?
Answer: Result: binds
